# Assay results: the supplement of paper PMC7125110
# ± gives the standard error. For some assays here: This sample holds only a part of the variants without activity.
# B1: glmS ribozyme (parent)
# chain: AUAAAAGCGCCAGAACUACAGAAAUGUAGUUGACGAGGAGGAGGUUUAUCGAAUUUUCGGCGGAUGCCUCCAAA
# How the values were obtained:
# Details in all cases: with glucosamine-6-phosphate
# [1] = variants of: B1; assay: kcat; higher = faster cleavage; RNA array
# Summary of the method: (§1)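 Barcoded ribozyme variants, transcribed in situ by E. coli RNA polymerase on sequenced MiSeq chips, were followed via a hybridised Cy3 probe at 37 °C. Glucosamine-6-phosphate ranged from 40 μM to 10 mM in HEPES/KCl/Mg(OAc)2 buffer. kobs came from decay fits to per-tile medians, and kcat and KM from weighted Michaelis–Menten fits.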
# [2] = variants of: B1; assay: KM; higher = weaker cofactor use; RNA array
# Summary of the method: as §1
# [3] = variants of: B1; assay: self-cleavage kobs at 40 uM GlcN6P; higher = faster cleavage; RNA array
# Summary of the method: as §1
# [4] = variants of: B1; assay: self-cleavage kobs at 160 uM GlcN6P; higher = faster cleavage; RNA array
# Summary of the method: as §1
# [5] = variants of: B1; assay: self-cleavage kobs at 640 uM GlcN6P; higher = faster cleavage; RNA array
# Summary of the method: as §1
# [6] = variants of: B1; assay: self-cleavage kobs at 2500 uM GlcN6P; higher = faster cleavage; RNA array
# Summary of the method: as §1
# [7] = variants of: B1; assay: self-cleavage kobs at 10000 uM GlcN6P; higher = faster cleavage; RNA array
# Summary of the method: as §1
Variant,kcat [1] [s⁻¹],KM [2] [µM],self-cleavage kobs at 40 uM GlcN6P [3] [s⁻¹],self-cleavage kobs at 160 uM GlcN6P [4] [s⁻¹],self-cleavage kobs at 640 uM GlcN6P [5] [s⁻¹],self-cleavage kobs at 2500 uM GlcN6P [6] [s⁻¹],self-cleavage kobs at 10000 uM GlcN6P [7] [s⁻¹]
U30A U31C,0.00588 ± 0.00051,4300 ± 500,5.91e-05 ± 1.1e-05,0.000203 ± 4.9e-05,0.000754 ± 0.00011,0.00197 ± 0.00041,0.00423 ± 0.0006
C11A C61A,< 1e-05,–,–,–,–,–,–
G40A G43C,< 1e-05,–,–,–,< 1e-05,–,–
G7A G37C U47A,1.02e-05 ± 2.4e-06,–,–,< 1e-05,–,–,–
C61G C67G C70G,< 1e-05,–,–,–,–,–,–
C58A C67U,0.000215 ± 1.7e-05,1370 ± 290,–,–,6.4e-05 ± 1e-05,0.000161 ± 2e-05,0.000182 ± 1.7e-05
A14G U47C,0.00925 ± 0.0028,1160 ± 520,0.000316 ± 5.1e-05,0.00182 ± 0.00041,0.00236 ± 0.00055,0.0109 ± 0.0027,0.00833 ± 0.0014
U55C U65G,0.00367 ± 0.00064,2540 ± 680,4.04e-05 ± 1.8e-05,0.000212 ± 5.2e-05,0.000908 ± 0.00016,0.00177 ± 0.0003,0.00288 ± 0.00054
G29U C67A U69A,7.55e-05 ± 1.2e-05,–,–,–,5.78e-05 ± 2.8e-05,0.000106 ± 2.6e-05,6.88e-05 ± 1.3e-05
U47G C68A,6.42e-05 ± 2.2e-05,–,–,4.97e-05 ± 2e-05,0.000121 ± 2.4e-05,9.07e-05 ± 1.6e-05,3.58e-05 ± 1.2e-05
U31G G37C,2.89e-05 ± 1.4e-06,1380 ± 340,< 1e-05,–,–,–,–
U30C A39U,0.000228 ± 2.1e-05,1730 ± 380,–,–,6.71e-05 ± 1e-05,0.000123 ± 1.7e-05,0.000203 ± 2.2e-05
A52U,0.000465 ± 1.7e-05,2960 ± 200,–,2.13e-05 ± 1.9e-06,8.16e-05 ± 1.8e-06,0.000223 ± 4.8e-06,0.000355 ± 5.5e-06
G13C U54G,0.000222 ± 4.5e-06,6040 ± 230,–,–,–,6.51e-05 ± 1e-05,0.000138 ± 1.7e-05
C16U G29A,0.0165 ± 0.0058,–,0.00117 ± 0.00016,0.00189 ± 0.00052,0.0124 ± 0.0019,0.0121 ± 0.0031,0.0147 ± 0.0029
G37U U69C,1.14e-05 ± 5.4e-06,–,–,< 1e-05,–,–,< 1e-05
A12G G66C,8.51e-05 ± 6.1e-06,857 ± 290,–,–,4.42e-05 ± 1.9e-05,5.86e-05 ± 1.3e-05,8.08e-05 ± 1.3e-05

Variant,kcat [1] [s⁻¹],KM [2] [µM],self-cleavage kobs at 40 uM GlcN6P [3] [s⁻¹],self-cleavage kobs at 160 uM GlcN6P [4] [s⁻¹],self-cleavage kobs at 640 uM GlcN6P [5] [s⁻¹],self-cleavage kobs at 2500 uM GlcN6P [6] [s⁻¹],self-cleavage kobs at 10000 uM GlcN6P [7] [s⁻¹]
C11A C68U,5.04e-05 ± 2.5e-06,459 ± 170,–,–,3.2e-05 ± 1.4e-05,3.54e-05 ± 1.4e-05,4.9e-05 ± 6.3e-06
A14C C71A,0.00106 ± 0.00051,–,3.61e-05 ± 1.7e-05,0.000121 ± 3.2e-05,0.000194 ± 3.2e-05,0.000353 ± 5.6e-05,0.000984 ± 0.00013
U45G C58G,6.11e-05 ± 9.3e-06,4730 ± 1900,–,–,–,–,4.17e-05 ± 1.1e-05
G13C,0.000191 ± 5.2e-06,4220 ± 250,–,–,2.7e-05 ± 1.3e-06,6.98e-05 ± 1.4e-06,0.000135 ± 1.8e-06
G44C U54G,0.000124 ± 1.2e-05,1200 ± 330,–,–,4.75e-05 ± 1.2e-05,7.38e-05 ± 1.6e-05,0.000118 ± 1.9e-05
C11G A39U,< 1e-05,–,–,< 1e-05,–,< 1e-05,–
A52U U57G,5.28e-05 ± 9.7e-06,–,< 1e-05,–,–,–,4.88e-05 ± 7.6e-06
G7U U55A,< 1e-05,–,–,< 1e-05,< 1e-05,< 1e-05,–
G29U C34G,< 1e-05,–,< 1e-05,–,–,–,< 1e-05
A33U G51A,< 1e-05,394 ± 130,< 1e-05,–,–,–,–
G13U A42G,0.00137 ± 0.00022,1680 ± 460,2.35e-05 ± 1.1e-05,0.000152 ± 3.8e-05,–,0.00082 ± 0.00017,0.00117 ± 0.00027
U30C A53G,0.000411 ± 4.1e-05,2120 ± 440,–,–,9.02e-05 ± 1.4e-05,0.000252 ± 3.6e-05,0.000328 ± 3.8e-05
C11U C58U,3.64e-05 ± 4.6e-06,–,–,–,–,4.05e-05 ± 1.3e-05,3.32e-05 ± 7.1e-06
C58U C71U,8.62e-05 ± 5e-06,3200 ± 560,–,–,–,3.66e-05 ± 7.1e-06,6.56e-05 ± 6e-06
G13A U69G,6.29e-05 ± 1.9e-05,–,–,4.26e-05 ± 1.5e-05,7.5e-05 ± 1.3e-05,6.99e-05 ± 1.7e-05,–
A39C U54C,0.00666 ± 0.0019,2400 ± 1100,0.000105 ± 2.5e-05,–,0.00125 ± 0.0003,0.00481 ± 0.00084,0.00475 ± 0.00095
G40A C70U,0.000518 ± 0.0001,165 ± 58,0.000102 ± 1.8e-05,–,–,0.000417 ± 0.00011,0.000752 ± 0.00019
